Experimental findings from article PMC12193508 are described below.

Assay [1] addresses MMsHsp (sHsp of Methanococcus maripaludis) (Methanococcus maripaludis). Nature of the assay: AUC; sedimentation velocity at 40 °C, 1.0 mg/mL, 40,000 rpm, Rayleigh interference optics, c(s20,w) with SEDFIT; oligomers of one protein.
Assay [2] has the same target. Nature of the assay: AUC; sedimentation velocity at 40 °C, 0.1 mg/mL, 40,000 rpm, Rayleigh interference optics, c(s20,w) with SEDFIT; oligomers of one protein.

As for “MMsHsp (sHsp of Methanococcus maripaludis) (natural protein)”, in assay [1], the stoichiometry N (as a rule, the number of molecules, sites or subunits per partner or assembly) was 16; the w, weight fraction of peak a (N 2) amounted to 16.8%; the w, weight fraction of peak b (N 8) was found to be 4.6%; the w, weight fraction of peak c (N 17) amounted to 5.3%. In assay [1], this substance had a w, weight fraction of peak d (N 24) of 73.3%. In addition, in assay [2], the w, weight fraction of peak a (N 2) came to 31.3%; the w, weight fraction of peak b (N 8) is 4.2%; the w, weight fraction of peak c (N 18) amounted to 10.9%; the w, weight fraction of peak d (N 24) was 53.6%.
